This is an account of results in the supplement of paper PMC9233669.

Variants at the floor of the assay were thinned out.

Data set [1] deals with biotinyl-Phe-oxazolone. Kind of data set: self-aminoacylation, catalytic enhancement (BFO) (fold over background); higher = more active; k-Seq, kA / k0A0; sequences stand for … in GGGAAUGGAUCCACAUCUACGAAUUC…UUCACUGCAGACUUGACGAAGCUG
The method in brief: (§1)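 Catalytic enhancement equals the median kA over the uncatalyzed rate, the latter read from the low-activity peak of a bimodal Gaussian fit. Values of kA came from fitting each sequence's fraction reacted to a pseudo-first-order model, with 1000 bootstraps. Reacted RNA was captured with streptavidin and quantified by triplicate qPCR and Illumina sequencing after 90 minutes at room temperature with 2–1250 μM biotinyl-aminoacyl-oxazolone and 0.43 μM mutagenized RNA pools bearing a 21-nt variable region.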

Data set [2] has as its system biotinyl-Met-oxazolone. Kind of data set: self-aminoacylation, catalytic enhancement (BMO) (fold over background); higher = more active; k-Seq, kA / k0A0; sequences stand for … in GGGAAUGGAUCCACAUCUACGAAUUC…UUCACUGCAGACUUGACGAAGCUG
The method in brief:
as §1

Data set [3] concerns biotinyl-Leu-oxazolone. Nature of the data set: self-aminoacylation, catalytic enhancement (BLO) (fold over background); higher = more active; k-Seq, kA / k0A0; sequences stand for … in GGGAAUGGAUCCACAUCUACGAAUUC…UUCACUGCAGACUUGACGAAGCUG
The method in brief:
as §1

The subject of data set [4] is biotinyl-Trp-oxazolone. Nature of the data set: self-aminoacylation, catalytic enhancement (BWO) (fold over background); higher = more active; k-Seq, kA / k0A0; sequences stand for … in GGGAAUGGAUCCACAUCUACGAAUUC…UUCACUGCAGACUUGACGAAGCUG
The essentials: as §1

In the case of “AAGCUUGCUAACAGUCGCAAG [Fam3.1 aminoacylation ribozyme variant]”, the figures for the self-aminoacylation in data set [1], in data set [2] and in data set [3] were 3.33, 2.4 and 2.5, respectively.
With “AUUACCCUGGUACUCGAGUGA [Fam2.1 aminoacylation ribozyme variant]”, the self-aminoacylation was 10.3 in data set [1], 2.66 in data set [2], 2.66 in data set [3] and 3.35 in data set [4].
Turning to “CUUAGCCUGGUCAUCGAGUGA [Fam2.1 aminoacylation ribozyme variant]”, the self-aminoacylation in data set [1] was 2.6; in data set [2], 2.57; in data set [3], 3.38; in data set [4], 2.72.
On the same counts, the results for “AUUACCCUGCUCUUCGAGUGA [Fam2.1 aminoacylation ribozyme variant]” are 2.38, 2.02, 2.36 and 2.72.
On the same counts, the results for “AUUCACCUACGUCAACGGGUG [Fam2.2 aminoacylation ribozyme variant]” are 9.97, 2.35, 3.09 and 2.84.
Consider “AUCCACCUAGGUCAUAGGGUG [Fam2.2 aminoacylation ribozyme variant]”, for which the self-aminoacylation in data set [1] turned out to be 2.19; in data set [3], 2.16; in data set [4] it was 2.2.
For “CUGCUUCAAACAAUCGGUGUG [Fam1A.1 aminoacylation ribozyme variant]”, the self-aminoacylation in data set [1] is 124; in data set [2], 2.12; in data set [3] it was 3.16; in data set [4], 49.6.
The corresponding values for “AUUACGCUGGUCAUCAAGUGA [Fam2.1 aminoacylation ribozyme variant]” are 2.38, 2.63, 2.55 and 3.76.
Consider “CAGCUUCAAACAAUCGGUCUG [Fam1A.1 aminoacylation ribozyme variant]”, for which the self-aminoacylation in data set [1] stood at 52; in data set [3] it was 2.01; in data set [4] it was 27.1.
Turning to “AUUCACCUAGAUCAUCGGGUA [Fam2.2 aminoacylation ribozyme variant]”, the self-aminoacylation was 5.46 in data set [1] and 2.12 in data set [2].
On to “AUUCACCUAGGUCAUCUCGUG [Fam2.2 aminoacylation ribozyme variant]”, for which the self-aminoacylation in data set [1] amounted to 5.77; in data set [3], 2.29.
Turning to “AAGUGUGCUAAUAGUCGCGAG [Fam3.1 aminoacylation ribozyme variant]”, the figures for the self-aminoacylation in data set [3] and in data set [4] were 2.47 and 2.41, respectively.
For the sequence “AUUACCCUGGUCAUCCAGUGC [Fam2.1 aminoacylation ribozyme variant]”, the self-aminoacylation in data set [1] came out at 5.75; in data set [3], 2.19.
Regarding “AGGUCUGCUAAUAGUCGCAAG [Fam3.1 aminoacylation ribozyme variant]”, the self-aminoacylation amounted to 37 in data set [1], 2.08 in data set [2] and 9.95 in data set [4].
Regarding “CCACUUCAAUCAAUCGGUCUG [Fam1A.1 aminoacylation ribozyme variant]”, the self-aminoacylation in data set [1] turned out to be 41.8; in data set [3] it was 2.1; in data set [4], 29.4.
Turning to “AUUAUCCUGGUCAUCGAGGGA [Fam2.1 aminoacylation ribozyme variant]”, in data set [3], the self-aminoacylation is 2.02.
As for “AUUUCCCUGGUCAUCAAGUGA [Fam2.1 aminoacylation ribozyme variant]”, the self-aminoacylation in data set [1] was 2.51; in data set [3], 2.2; in data set [4] it was 2.88.
With “AAUUUUGCUAAUAGUCGCAUG [Fam3.1 aminoacylation ribozyme variant]”, the self-aminoacylation in data set [1] turned out to be 3.03; in data set [2], 2.28; in data set [4], 3.4.
Take “ACGUUUGCUAAUAGUCGCCAG [Fam3.1 aminoacylation ribozyme variant]”: the self-aminoacylation came to 2.03 in data set [1], 2.26 in data set [2] and 2.59 in data set [4].
In the case of “CUGUUUCAAACAAUCGGUCUG [Fam1A.1 aminoacylation ribozyme variant]”, the figures for the self-aminoacylation in data set [1], in data set [3] and in data set [4] were 96.2, 2.48 and 38.4, respectively.
In the case of “AUUCACCGAGGUCAUCGGGAG [Fam2.2 aminoacylation ribozyme variant]”, the self-aminoacylation in data set [1] came out at 4.74; in data set [2], 2.23.
Regarding “AUUACUCUGGUCAUCGAGGGA [Fam2.1 aminoacylation ribozyme variant]”, the figures for the self-aminoacylation in data set [2] and in data set [4] were 2.09 and 2.13, respectively.
For the sequence “CCACACUUCGAGCAAUCGGGC [Fam1B.1 aminoacylation ribozyme variant]”, the self-aminoacylation in data set [1] worked out at 9.16; in data set [3], 2.07.
In the case of “CCACACUUCAAGCAAGCGGUG [Fam1B.1 aminoacylation ribozyme variant]”, the figures for the self-aminoacylation in data set [2], in data set [3] and in data set [4] were 2.45, 3.19 and 2.4, respectively.
Regarding “CGACUUCAAACAAUCGGUUUG [Fam1A.1 aminoacylation ribozyme variant]”, the figures for the self-aminoacylation in data set [1], in data set [3] and in data set [4] were 63.5, 2.33 and 32.7, respectively.
For “AAGUUUACUAAAAGUCGCAAG [Fam3.1 aminoacylation ribozyme variant]”, the values for the self-aminoacylation in data set [1] and in data set [3] were 2.76 and 2.08, respectively.
“CUACCUCAAACAAUCGGUCUG [Fam1A.1 aminoacylation ribozyme variant]”: the self-aminoacylation in data set [1] stood at 3.14; in data set [4], 2.19.
On the same counts, the results for “CUACGUGAAACAAUCGGUCUG [Fam1A.1 aminoacylation ribozyme variant]” are 5.84 and 2.03.
“CCCGACUUCAAGCAAUCGGUC [Fam1B.1 aminoacylation ribozyme variant]”: the values for the self-aminoacylation in data set [1], in data set [3] and in data set [4] were 91.8, 2.85 and 47.6, respectively.
As for “AUUACCCUGGGCAUCGAGUGU [Fam2.1 aminoacylation ribozyme variant]”, the results for the self-aminoacylation in data set [1], in data set [2] and in data set [4] were 2.53, 2.02 and 2.31, respectively.
Regarding “ACGUUUGCCAAUAGUCGCAAG [Fam3.1 aminoacylation ribozyme variant]”, the values for the self-aminoacylation in data set [1], in data set [2] and in data set [3] were 6.32, 2.04 and 2.16, respectively.
Turning to “AAGUUUUCUAAAAGUCGCAAG [Fam3.1 aminoacylation ribozyme variant]”, the self-aminoacylation in data set [1] is 2.92; in data set [4] it was 2.01.
The corresponding values for “CGACACUUCAAGCAAUCGGUC [Fam1B.1 aminoacylation ribozyme variant]” are 13.4 and 7.38.
On the same counts, the results for “CAACUUCAAACAAUCGCUCUG [Fam1A.1 aminoacylation ribozyme variant]” are 3.06 and 2.41.
The corresponding values for “CUACUUCAAAAAAUCGGUCUC [Fam1A.1 aminoacylation ribozyme variant]” are 8.87 and 5.93.
“ACGCACUUCAAGCAAUCGGUC [Fam1B.1 aminoacylation ribozyme variant]”: the self-aminoacylation was found to be 33.8 in data set [1] and 19.9 in data set [4].
In the case of “AUUCACAUAGGUCAUCGGGGG [Fam2.2 aminoacylation ribozyme variant]”, the self-aminoacylation in data set [2] was 2.28; in data set [4] it was 2.66.
As for “UAACUUCAAACAAUCGGUCUG [Fam1A.1 aminoacylation ribozyme variant]”, the self-aminoacylation in data set [1] stood at 55.3; in data set [3], 2.04; in data set [4], 27.1.
With “CUACUUCAAAUAAUCGGUCUU [Fam1A.1 aminoacylation ribozyme variant]”, the self-aminoacylation in data set [1] amounted to 9.54; in data set [4], 5.86.
For “AAGUUUGUUAAUAGUCGCAGG [Fam3.1 aminoacylation ribozyme variant]”, the values for the self-aminoacylation in data set [1], in data set [3] and in data set [4] were 5.46, 2.45 and 2.06, respectively.
Regarding “CCACAGUUCAAGCAAUCGCUC [Fam1B.1 aminoacylation ribozyme variant]”, the self-aminoacylation in data set [1] was found to be 2.03; in data set [3] it was 2.43.
As for “CGACUUCAAAAAAUCGGUCUG [Fam1A.1 aminoacylation ribozyme variant]”, the self-aminoacylation in data set [1] came to 15.3; in data set [4], 14.
The corresponding values for “CUUCUUCAAACAAUCGGUGUG [Fam1A.1 aminoacylation ribozyme variant]” are 4.48 and 2.46.
The corresponding values for “AUACUUCAACCAAUCGGUCUG [Fam1A.1 aminoacylation ribozyme variant]” are 5.09 and 4.18.
For the sequence “UCACUUCAAACAAUCGGUCUG [Fam1A.1 aminoacylation ribozyme variant]”, the self-aminoacylation in data set [1] is 70.7; in data set [3] it was 2.11; in data set [4], 35.1.
“CUACUUCAAACAAUCGCUGUG [Fam1A.1 aminoacylation ribozyme variant]”: in data set [3], the self-aminoacylation was determined as 2.54.
With “ACACAGUUCAAGCAAUCGGUC [Fam1B.1 aminoacylation ribozyme variant]”, the self-aminoacylation was 3.76 in data set [1] and 3.46 in data set [4].
“AUAGUUCAAACAAUCGGUCUG [Fam1A.1 aminoacylation ribozyme variant]”: the self-aminoacylation was determined as 4.05 in data set [1] and 3.06 in data set [4].
